Target: the molecule itself
Test: […], in Tris-HCl buffer (10 mM Tris-HCl pH 8.0, 150 mM NaCl, 1 mM EDTA); […]

B1: MARV nucleoprotein (1–395), wild type (domain or fragment)
chain: MDLHSLLELGTKPTAPHVRNKKVILFDTNHQVSICNQIIDAINSGIDLGDLLEGGLLTLCVEHYYNSDKDKFNTSPVAKYLRDAGYEFDVIKNADATRFLDVSPNEPHYSPLILALKTLESTESQRGRIGLFLSFCSLFLPKLVVGDRASIEKALRQVTVHQEQGIVTYPNHWLTTGHMKVIFGILRSSFILKFVLIHQGVNLVTGHDAYDSIISNSVGQTRFSGLLIVKTVLEFILQKTDSGVTLHPLVRTSKVKNEVASFKQALSNLARHGEYAPFARVLNLSGINNLEHGLYPQLSAIALGVATAHGSTLAGVNVGEQYQQLREAAHDAEVKLQRRHEHQEIQAIAEDDEERKILEQFHLQKTEITHSQTLAVLSQKREKLARLAAEIENNI
Question: Does B1 bind?
Answer: Result: binds

From article PMC8897395 (Nature Communications, 2022)
